This is an account of results in article PMC6301718, “CDHR3 extracellular domains EC1-3 mediate rhinovirus C interaction with cells and as recombinant derivatives, are inhibitory to virus infection” (PLoS Pathogens, 2018).

Numbering of substitutions follows the chain as printed. Names and notes keep the numbering of the source.

The target in data set [1] is rEC1+3(Δ2) (CDHR3 residues 20–345, Δ129–231) (human) (UniProt Q6ZTQ4). Briefly: co-IP; refolded bacterial CDHR3 fragment (100 pmol) incubated with C15 virus (10^7 PFUe, 1 h, 25°C) and α-His mAb in 20 mM Tris, 137 mM NaCl, 2 mM CaCl2, 1% Triton x-100, protein-G sepharose; Western with α-His and α-C15; complexes also treated with 500 mM NaCl (Fig 5d).
In data set [2] the target is rEC1-3 (CDHR3 residues 20–345, C345A) (human) (UniProt Q6ZTQ4). Described as above.
The target in data set [3] is rEC1-3 K43A (20–345, C345A, K43A) (human) (UniProt Q6ZTQ4). The description is as above.
In data set [4] the target is rEC1-3 N186A (20–345, C345A, N186A) (human) (UniProt Q6ZTQ4). The data set is described as above.
Data set [5] deals with rEC1-2 (CDHR3 residues 20–237) (human) (UniProt Q6ZTQ4). The data set is described as above.
In data set [6] the target is rEC1 (CDHR3 residues 20–130) (human) (UniProt Q6ZTQ4). The description is as above.
Data set [7] has as its target pHL-FLAG-CDHR3-His EC1-3 (1–345) (human) (UniProt Q6ZTQ4). As to the kind of experiment: co-IP; HeLa-expressed CDHR3 fragments recovered from lysate with α-His mAb, denatured and refolded as the bacterial proteins, reacted with C15 virus; IP and detection with α-His mAb.
Data set [8] addresses FLAG-tag-CDHR3 Y529 R166A (human) (UniProt Q6ZTQ4). Briefly: co-IP; clarified lysate of transfected or stably transduced HeLa cells (2 mM CaCl2) incubated with sucrose purified C15 virus (10^7 PFUe) and α-CDHR3 antibody (cytoplasmic domain) overnight at 4°C, protein-G sepharose; Western with α-CDHR3 and α-C15.
In data set [9] the target is FLAG-tag-CDHR3 Y529 W76A (human) (UniProt Q6ZTQ4). The data set is described as above.
For data set [10], the target named is FLAG-tag-CDHR3 Y529 N186A (human) (UniProt Q6ZTQ4). The data set is described as above.
For data set [11], the target named is FLAG-tag-CDHR3 Y529 K43A (human) (UniProt Q6ZTQ4). Described as above.
The target in data set [12] is FLAG-tag-CDHR3 Y529 N186Q (human) (UniProt Q6ZTQ4). Described as above.
Data set [13] deals with the molecule itself. Briefly: SEC; HiPrep 16/60 Sephacryl S200, refolded protein 0.5–1.5 mg, 1 mL/min, 20 mM Tris (pH 8.0), 137 mM NaCl, 2 mM CaCl2. Background: In gel filtration, larger molecules generally elute earlier.

On to rhinovirus C15 virion (complex), for which the binding % relative to the positive control (100) of the panel is 68% in data set [1], 61% in data set [2], 87% in [5] and 100% in [6]. The binding % relative to WT rEC1-3 is 22% in data set [3] and 85 % of WT in data set [4]. Besides, in [7], the binding % after refolding relative to the same protein not refolded turned out to be 213%. For the same molecule, the binding % relative to WT CDHR3 (C15 signal normalized to CDHR3 signal) is 16% in data set [8], 11% in data set [10], 46% in data set [11] and 19% in data set [12]. In data set [9], this molecule registered a % more virus pull-down than WT (% more than WT) of 50 to 80.

B1: rEC1-3 (CDHR3 residues 20–345, C345A) (domain or fragment)
chain: LHLILLPATGNVAENSPPGTSVHKFSVKLSASLSPVIPGFPQIVNSNPLTEAFRVNWLSGTYFEVVTTGMEQLDFETGPNIFDLQIYVKDEVGVTDLQVLTVQVTDVNEPPQFQGNLAEGLHLYIVERANPGFIYQVEAFDPEDTSRNIPLSYFLISPPKSFRMSANGTLFSTTELDFEAGHRSFHLIVEVRDSGGLKASTELQVNIVNLNDEVPRFTSPTRVYTVLEELSPGTIVANITAEDPDDEGFPSHLLYSITTVSKYFMINQLTGTIQVAQRIDRDAGELRQNPTISLEVLVKDRPYGGQENRIQITFIVEDVNDNPATA
notes: numbering from GenBank AIC58018; also called soluble CDHR3 rEC1-3; not shown: His6, C-terminal, kept
For the molecule B1, in [13], the binding result is given as “binds”.

B2: rEC1-2 (CDHR3 residues 20–237) (domain or fragment)
chain: LHLILLPATGNVAENSPPGTSVHKFSVKLSASLSPVIPGFPQIVNSNPLTEAFRVNWLSGTYFEVVTTGMEQLDFETGPNIFDLQIYVKDEVGVTDLQVLTVQVTDVNEPPQFQGNLAEGLHLYIVERANPGFIYQVEAFDPEDTSRNIPLSYFLISPPKSFRMSANGTLFSTTELDFEAGHRSFHLIVEVRDSGGLKASTELQVNIVNLNDEVPRFT
notes: CDHR3, human, residues 20-237 (EC1 and EC2); numbering from GenBank AIC58018; also called rE1-2; rEC1-2 WT; not shown: His6, C-terminal, kept
Regarding B2, in data set [13], the binding result is “binds”.

B3: rEC1-2 W76A (CDHR3 residues 20–237, W76A) (domain or fragment, human, UniProt Q6ZTQ4 20-237, looked up)
chain: B2 chain with W57A
notes: CDHR3, human, residues 20-237; numbering from GenBank AIC58018; not shown: His6, C-terminal, kept
As for B3, in data set [13], the binding result was “binds”.
